The results in this text go back to patent US20080138349A1.

In experiment [1] the target is FcγRIIIA 158F (CD16A F158), soluble monomer (human) (UniProt P08637). Description: binding to human FcRs; method not given.
Experiment [2] concerns the target FcγRIIA 131H (CD32A H131), soluble dimeric Fc fusion (human) (UniProt P12318). Description: binding to human FcRs; method not given.
Experiment [3] has as its target FcγRIIB (CD32B), soluble dimeric Fc fusion (human) (UniProt P31994). Nature of the experiment: binding to human FcRs; method not given.
Experiment [4] concerns the target FcγRIIIA 158V (CD16A V158), soluble monomer (human) (UniProt P08637). Description: binding to human FcRs; method not given.
Experiment [5] addresses FcγRIIIA 158F (CD16A F158), soluble monomer (human) (UniProt P08637). Nature of the experiment: Biacore SPR.
Experiment [6] has as its target FcγRIIB (CD32B), soluble dimeric Fc fusion (human) (UniProt P31994). Description: Biacore SPR.
Experiment [7] has as its target FcγRIIIA 158V (CD16A V158), soluble monomer (human) (UniProt P08637). Nature of the experiment: Biacore SPR.
Experiment [8] addresses FcγRIIIA 158F (CD16A F158), soluble monomer (human) (UniProt P08637). Nature of the experiment: Biacore SPR; value on CD16A over value on CD32B.
Experiment [9] addresses FcγRIIIA 158V (CD16A V158), soluble monomer (human) (UniProt P08637). Description: Biacore SPR; value on CD16A over value on CD32B.
Experiment [10] addresses FcγRIIIA 158F (CD16A F158), soluble monomer (human) (UniProt P08637). Nature of the experiment: value on CD16A 158F over value on CD32B.
For experiment [11] the target is unchanged. Description: method not given.
Experiment [12] deals with FcγRIIA 131H (CD32A H131), soluble dimeric Fc fusion (human) (UniProt P12318). Nature of the experiment: method not given.
The target of experiment [13] is FcγRIIA 131R (CD32A R131), soluble dimeric Fc fusion (human) (UniProt P12318). Nature of the experiment: method not given.
Experiment [14] has as its target FcγRIIB (CD32B), soluble dimeric Fc fusion (human) (UniProt P31994). Nature of the experiment: method not given.
Experiment [15] addresses FcγRIIIA 158V (CD16A V158), soluble monomer (human) (UniProt P08637). Description: method not given.
Experiment [16] shares this target. Nature of the experiment: value on CD16A 158V over value on CD32B.
The target in experiment [17] is FcγRIIA 131H (CD32A H131), soluble dimeric Fc fusion (human) (UniProt P12318). Nature of the experiment: value on CD32A 131H over value on CD32B.
A further experiment concerns the target FcγRIIIA (UniProt P08637). Description: ELISA.
In experiment [18] the target is soluble monomeric FcγRIIIA, the extracellular region of FcγRIIIA joined to the linker-AVITAG sequence (UniProt P08637). Nature of the experiment: yeast display FACS; 0.1 µM biotinylated FcγRIIIA-linker-avitag chased with unlabeled monomer.
Experiment [19] concerns the target FcγRIIB-Fc fusion protein, soluble dimeric: extracellular domain of FcγRIIB fused to the hinge-CH2-CH3 domain of human IgG2 (human) (UniProt P31994). Description: BIAcore, antibody captured on BSA-FITC.
Experiment [20] has as its target soluble monomeric FcγRIIIA, the extracellular region of FcγRIIIA joined to the linker-AVITAG sequence (UniProt P08637). Description: BIAcore, antibody captured on BSA-FITC.
Experiment [21] concerns the target FcγRIIB-Fc fusion protein, soluble dimeric: extracellular domain of FcγRIIB fused to the hinge-CH2-CH3 domain of human IgG2 (human) (UniProt P31994). Nature of the experiment: ELISA.
Experiment [22] shares this target. Nature of the experiment: BIAcore.
The target in experiment [23] is soluble monomeric FcγRIIIA, the extracellular region of FcγRIIIA joined to the linker-AVITAG sequence (UniProt P08637). Description: BIAcore.
The target of a further experiment is FcγRIIIA 158V, soluble (UniProt P08637). Description: BIAcore, 2B6 captured by soluble CD32B.
For a further experiment, the target named is FcγRIIIA 158F, soluble (UniProt P08637). Nature of the experiment: BIAcore, 2B6 captured by soluble CD32B.
FcγRIIIA 158F, soluble, sequence (P08637 17-208 limits assumed): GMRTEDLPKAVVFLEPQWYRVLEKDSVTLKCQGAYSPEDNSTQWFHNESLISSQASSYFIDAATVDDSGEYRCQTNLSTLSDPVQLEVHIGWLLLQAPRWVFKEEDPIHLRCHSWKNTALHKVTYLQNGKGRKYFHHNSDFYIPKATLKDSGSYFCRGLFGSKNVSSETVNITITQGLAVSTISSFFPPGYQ

FcγRIIB-Fc fusion protein, soluble dimeric: extracellular domain of FcγRIIB fused to the hinge-CH2-CH3 domain of human IgG2 (human), sequence (P31994 43-217 limits assumed): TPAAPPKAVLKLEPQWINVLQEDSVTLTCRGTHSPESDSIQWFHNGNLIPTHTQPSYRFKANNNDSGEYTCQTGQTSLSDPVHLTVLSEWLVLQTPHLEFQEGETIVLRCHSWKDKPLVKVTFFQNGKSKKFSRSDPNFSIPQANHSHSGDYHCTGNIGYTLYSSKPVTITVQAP
FcγRIIB (CD32B), soluble dimeric Fc fusion (human), sequence (P31994 43-217): as the sequence (P31994 43-217 limits assumed) above
FcγRIIA 131R (CD32A R131), soluble dimeric Fc fusion (human), sequence (P12318 34-217 H167R): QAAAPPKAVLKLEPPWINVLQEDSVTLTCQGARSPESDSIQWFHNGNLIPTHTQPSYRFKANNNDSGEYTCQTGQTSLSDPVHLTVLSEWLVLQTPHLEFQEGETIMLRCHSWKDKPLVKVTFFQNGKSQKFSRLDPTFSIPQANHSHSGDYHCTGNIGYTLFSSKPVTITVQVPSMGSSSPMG
FcγRIIIA 158V (CD16A V158), soluble monomer (human), sequence (P08637 17-208 F176V): as the sequence (P08637 17-208 limits assumed) above, with F160V counted along it
FcγRIIIA, sequence (P08637 17-208 limits assumed): as the sequence (P08637 17-208 limits assumed) above
soluble monomeric FcγRIIIA, the extracellular region of FcγRIIIA joined to the linker-AVITAG sequence, sequence (P08637 17-208 limits assumed): as above
FcγRIIIA 158F (CD16A F158), soluble monomer (human), sequence (P08637 17-208): as the sequence (P08637 17-208 limits assumed) above
FcγRIIA 131H (CD32A H131), soluble dimeric Fc fusion (human), sequence (P12318 34-217): as the sequence (P12318 34-217 H167R) above, with R134H counted along it
FcγRIIIA 158V, soluble, sequence (P08637 17-208 F176V limits assumed): as the sequence (P08637 17-208 limits assumed) above, with F160V counted along it

“Control immunoglobulin with variant Fc region E333A K334A S298A (AAA) (antibody)”: the fold change relative to wild-type affinity in experiment [1] was 0.1 fold; in [2], -3.3 fold; in [3], -2.5 fold; in [4], 0.6 fold.
Turning to “Control immunoglobulin with variant Fc region S239D I332E A330L (XmAb) (antibody)”, the fold change relative to wild-type affinity was found to be 8.1 fold in experiment [1], 0 fold in [2], 0.74 fold in experiment [3] and 13.9 fold in [4].
On to “Immunoglobulin with variant Fc region F243L R292P P396L (antibody)”, for which the fold change relative to wild-type affinity in experiment [1] was 2.4 fold; in experiment [2], 0.4 fold; in [3], -1.6 fold; in experiment [4], 5.3 fold.
Take “Immunoglobulin with variant Fc region F243L R292P Y300L (antibody)”: the figures for the Koff WT/Koff mutant in [5], in experiment [6] and in experiment [7] were 2.3, 0.32 and 6.69, respectively. Also, in [8], the Ratio of Affinities CD16A F158/CD32B amounted to 7.19. For the same substance, the Ratio of Affinities CD16A V158/CD32B in [9] is 20.9. Moreover, the fold change relative to wild-type affinity in experiment [1] is 3.6 fold; in experiment [2], 0 fold; in [3], -0.7 fold; in [4], 6.4 fold.
On to “Immunoglobulin with variant Fc region L234F, F243L, R292P, Y300L (antibody)”, for which the Ratio of Affinities 16A-158F:32B in experiment [10] came out at 8. Besides, the binding relative to wt (wt = 1) in experiment [11] is 1.6; in experiment [12], 0.3; in experiment [13], 0.2; in experiment [14] it was 0.2; in experiment [15], 1.7. For the same substance, in experiment [16], the Ratio of Affinities 16A-158V:32B stood at 8.5. Also, the Ratio of Affinities 32A-131H:32B in experiment [17] turned out to be 1.5.
Consider “Immunoglobulin with variant Fc region L235I, F243L, R292P, Y300L (antibody)”, for which the Ratio of Affinities 16A-158F:32B in experiment [10] was found to be 16.5. The binding relative to wt (wt = 1) was found to be 3.3 in experiment [11]; 0.5 in [12]; 0.1 in [13]; 0.2 in [14]; 2.6 in experiment [15]. Besides, in [16], the Ratio of Affinities 16A-158V:32B was 13. Also, the Ratio of Affinities 32A-131H:32B in experiment [17] came out at 2.5.
Turning to “Immunoglobulin with variant Fc region L235Q, F243L, R292P, Y300L (antibody)”, the binding relative to wt (wt = 1) was determined as 0.2 in [12] and 1.8 in experiment [15].
As for “Immunoglobulin with variant Fc region L235V, F243L, R292P, Y300L, P396L (antibody)”, in experiment [10], the Ratio of Affinities 16A-158F:32B turned out to be 12. For the same substance, the binding relative to wt (wt = 1) in experiment [11] is 4.8; in [12], 1.3; in [13], 0.4; in experiment [14], 0.4; in experiment [15], 6.1. Moreover, the Ratio of Affinities 16A-158V:32B in [16] was found to be 15. The Ratio of Affinities 32A-131H:32B in experiment [17] stood at 3.3.
Regarding “Immunoglobulin with variant Fc region P396L (antibody)”, the Koff WT/Koff mutant was 1.73 in experiment [5], 2.58 in [6] and 1.27 in [7]. For the same substance, the Ratio of Affinities CD16A F158/CD32B in [8] is 0.67. The Ratio of Affinities CD16A V158/CD32B in experiment [9] was 0.49. For the same substance, the fold change relative to wild-type affinity is 0.7 fold in experiment [1], 0.6 fold in experiment [2], 1.6 fold in experiment [3] and 0.3 fold in [4].
As for “Immunoglobulin with variant Fc region R255L P396L D270E (antibody)”, the Koff WT/Koff mutant in [5] amounted to 1.65; in experiment [6], 0.87; in experiment [7] it was 1.34. Also, in [8], the Ratio of Affinities CD16A F158/CD32B is 1.9. In addition, in experiment [9], the Ratio of Affinities CD16A V158/CD32B was 1.54.
“Immunoglobulin with variant Fc region R255L P396L D270E F243L (antibody)”: the Koff WT/Koff mutant worked out at 1.64 in [5], 0.38 in experiment [6] and 1.75 in experiment [7]. Besides, in experiment [8], the Ratio of Affinities CD16A F158/CD32B amounted to 4.32. Also, the Ratio of Affinities CD16A V158/CD32B in experiment [9] came to 4.61.
In the case of “Immunoglobulin with variant Fc region R292P (antibody)”, the fold change relative to wild-type affinity in [1] is 0.6 fold; in experiment [2], -0.5 fold; in experiment [3], -2.7 fold.
For the substance “Immunoglobulin with variant Fc region R292P F243L P396L Y300L (antibody)”, the Koff WT/Koff mutant in [5] was 5.62; in experiment [6], 1.07; in [7], 10.1. For the same substance, the Ratio of Affinities CD16A F158/CD32B in experiment [8] came to 5.25. The Ratio of Affinities CD16A V158/CD32B in experiment [9] came out at 9.4.
For the substance “Immunoglobulin with variant Fc region R292P V284M K370N (antibody)”, the Koff WT/Koff mutant worked out at 1.37 in experiment [5], 0.37 in experiment [6] and 1.14 in experiment [7]. Also, in experiment [8], the Ratio of Affinities CD16A F158/CD32B worked out at 3.7. In experiment [9], the Ratio of Affinities CD16A V158/CD32B turned out to be 3.1.
In the case of “Immunoglobulin with variant Fc region R292P V305I F243L P396L (antibody)”, the fold change relative to wild-type affinity was -0.3 fold in [2], -1.6 fold in experiment [3] and -3 fold in experiment [4].
“Immunoglobulin with variant Fc region R292P V305I P396L (antibody)”: the Koff WT/Koff mutant turned out to be 1.9 in [5], 0.92 in experiment [6] and 1.85 in experiment [7]. Further, in experiment [8], the Ratio of Affinities CD16A F158/CD32B came out at 2.07. Besides, the Ratio of Affinities CD16A V158/CD32B in experiment [9] stood at 2.01.
On to “Immunoglobulin with variant Fc region Y300L (antibody)”, for which the Koff WT/Koff mutant worked out at 1.18 in experiment [6] and 1.01 in experiment [7]. In experiment [8], the Ratio of Affinities CD16A F158/CD32B came out at 0.99. For the same substance, the fold change relative to wild-type affinity was 0.2 fold in experiment [1], 1.9 fold in experiment [2], 0.2 fold in experiment [3] and 0 fold in [4].
“ch4-4-20 P396L (from UniProt P01857 1-330) (antibody)” gave an ELISA binding increase vs wt with FcγRIIIA of 1 x. The substance also gave a loss of cell staining after 1 minute with unlabeled FcγRIIIA in experiment [18] of 50%.
Consider “ch4-4-20 antibody, wild-type Fc (chimeric anti-fluorescein, IgG1)”, for which the Kd in experiment [19] is 61.4 nM; in experiment [20], 319 nM; in [22] it was 94 nM; in experiment [23], 198 nM. Further, the ELISA, OD is 0.4 OD in experiment [21] and 0.5 OD with FcγRIIIA. Besides, in the experiment with FcγRIIIA, the ELISA IIIA binding vs wt turned out to be 1.
“ch-mAb 2B6 (chimeric anti-CD32B), wild-type IgG1 Fc (antibody)”: the koff was 0.192 s⁻¹ with FcγRIIIA 158V, soluble and 0.434 s⁻¹ with FcγRIIIA 158F, soluble.
